Reference: patent US20030135878

Biological target: wheat thioredoxin h (WTRXh), 13.5-kDa protein encoded by the 384-bp wtrxh fragment (UniProt O64394)
Sequence (O64394 whole entry, the tested form may be a part): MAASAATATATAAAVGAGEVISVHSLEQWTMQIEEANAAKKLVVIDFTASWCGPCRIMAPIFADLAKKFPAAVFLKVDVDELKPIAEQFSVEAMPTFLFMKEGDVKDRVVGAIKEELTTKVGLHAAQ

Arabidopsis thaliana NTR (NADP-thioredoxin reductase)
Relative reduction of albumin-fraction proteins (mBBr fluorescence/protein), Homozygous/Null Segregant, +NADPH/NTR (fold (Homozygous/Null Segregant)): 3.91

barley NTR (NADP-thioredoxin reductase)
reduction of DTNB [5,5'-dithiobis(2-nitrobenzoic acid)] via NTR and thioredoxin: confirmed the ability of barley NTR to reduce wheat thioredoxin h (data not shown)
